According to article PMC7026639:
Read-outs that look alike come from different tables or passages of the source.

B1: 13-bp iodo oligo (dsDNA)
DNA 1: TCCAAGCGCAACG
DNA 2: CGUTGCGCTUGGA
modifications: 5-iodo-uridine at positions 3 and 10 of strand 2 (printed as I, written as U)
B2: 14-bp cognate oligo (dsDNA)
DNA 1: TCCAAGCGCAACAG
DNA 2: CTGTTGCGCTTGGA

Key:
[1] = target: T1, HhaI restriction endonuclease (R.HhaI) (Haemophilus haemolyticus NEB129 (now …, UniProt A0ABF7PI58 1-258)); assay: X-ray crystallography
[2] = target: T1, HhaI restriction endonuclease (R.HhaI); assay: X-ray crystallography; remark: listed apart in the source

Binder	binding result [1]	binding result [2]
B1	binds	–
B2	–	binds
